Tests used:
Assay in all cases: Specificity phage ELISA
Assay type in all cases: binding
Settings in all cases: antigen coated at 1 μg/ml, absorbance at 450 nm
[1] = tested on: irrelevant fusion protein
Procedure: (§1) To determine the specificity of the antibodies which bound TR4, a phage ELISA was performed against human TR4 fusion protein, and a panel of related and unrelated human antigens TR7, TR5, TR10, BlyS (described in International Patent Publication Numbers WO98/18921 and WO00/50597, which are both herein icorprated by reference in their entireties), irrelevant fusion protein and BSA.
(§2) Individual E. coli colonies containing phagemid were inoculated into 5 ml 2YTAG and incubated at 37° C. for 4 hours, shaking. M13K07 helper phage (Pharmacia) was added to each tube to an moi of 10 and incubated for […], the first 30 minutes static and the final 30 minutes with gentle shaking. Cells were pelleted by centrifugation at 3,500 rpm for 10 minutes. The phage containing supernatant (5 ml) was carefully transferred to a fresh tube, 1 ml of 6 MPBS added and then incubated at room temperature for 1 hour to pre-block the phage prior to ELISA.
(§3) Flexible 96-well plates (Falcon) were coated overnight at 4° C. with each antigen (1 μg/ml). All antigens were coated in PBS. After coating, the solutions were removed from the wells, and the plates were blocked for 1 hour at room temperature in MPBS. The plates were washed 3 times with PBS and then 50 μl of pre-blocked phage was added to each well. The plates were incubated at room temperature for 1 hour and then washed with 3 changes of PBST followed by 3 changes of PBS.
(§4) To each well, 50 μl of an anti-M13-HRP conjugate (Pharmacia) at a 1 in 5000 dilution in MPBS was added and the plates incubated at room temperature for 1 hour. Each plate was washed three times with PBST followed by three times with PBS.
(§5) Fifty μl of TMB substrate was then added to each well, and incubated at room temperature for 30 minutes or until colour development. The reaction was stopped by the addition of 25 μl of 0.5 M H2SO4. The signal generated was measured by reading the absorbance at 450 nm (A450) using a microtitre plate reader (Bio-Rad 3550).

BLyS = BLyS (Homo sapiens, UniProt Q9Y275)
Chain of BLyS (Q9Y275 whole entry): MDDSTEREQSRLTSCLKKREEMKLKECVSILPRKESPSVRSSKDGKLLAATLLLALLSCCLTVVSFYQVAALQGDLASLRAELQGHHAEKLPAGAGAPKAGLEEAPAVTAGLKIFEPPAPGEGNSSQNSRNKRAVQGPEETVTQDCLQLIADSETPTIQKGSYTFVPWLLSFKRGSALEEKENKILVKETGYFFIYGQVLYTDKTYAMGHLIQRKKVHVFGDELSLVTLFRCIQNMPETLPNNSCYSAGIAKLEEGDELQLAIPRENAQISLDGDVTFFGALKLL
Procedure: as §1, §2, §3, §4, §5

TR7 = TR7 (Homo sapiens, UniProt O14763)
Chain of TR7 (O14763 56-411 isoform O14763-2 limits assumed): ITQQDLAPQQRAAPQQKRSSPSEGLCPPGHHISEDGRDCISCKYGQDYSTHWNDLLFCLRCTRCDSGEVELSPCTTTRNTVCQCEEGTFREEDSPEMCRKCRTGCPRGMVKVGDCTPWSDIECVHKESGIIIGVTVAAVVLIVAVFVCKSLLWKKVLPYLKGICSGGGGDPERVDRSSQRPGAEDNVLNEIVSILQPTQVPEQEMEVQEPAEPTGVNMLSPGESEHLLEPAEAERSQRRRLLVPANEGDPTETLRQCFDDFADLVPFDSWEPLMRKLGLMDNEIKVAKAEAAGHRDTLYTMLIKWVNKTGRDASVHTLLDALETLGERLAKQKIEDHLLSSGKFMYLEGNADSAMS
Procedure: as §1, §2, §3, §4, §5

TR10 = target: T1, TR10 (Homo sapiens, UniProt Q9UBN6, L310S)
T1 sequence (Q9UBN6 56-386 L310S): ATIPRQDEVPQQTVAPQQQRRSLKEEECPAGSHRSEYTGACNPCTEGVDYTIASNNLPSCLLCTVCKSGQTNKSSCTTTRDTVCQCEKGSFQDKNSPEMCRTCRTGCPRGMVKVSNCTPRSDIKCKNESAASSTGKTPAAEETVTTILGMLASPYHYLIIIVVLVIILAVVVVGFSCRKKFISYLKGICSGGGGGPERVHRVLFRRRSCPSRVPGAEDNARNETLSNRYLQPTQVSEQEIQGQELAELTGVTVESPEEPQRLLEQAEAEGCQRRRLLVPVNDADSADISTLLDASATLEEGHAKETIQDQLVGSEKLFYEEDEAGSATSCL
Procedure: as §1, §2, §3, §4, §5

TR5 = target: T2, TR5 (Homo sapiens, UniProt O14798, I229T)
T2 sequence (O14798 with tags, fused parts or gaps I229T limits assumed): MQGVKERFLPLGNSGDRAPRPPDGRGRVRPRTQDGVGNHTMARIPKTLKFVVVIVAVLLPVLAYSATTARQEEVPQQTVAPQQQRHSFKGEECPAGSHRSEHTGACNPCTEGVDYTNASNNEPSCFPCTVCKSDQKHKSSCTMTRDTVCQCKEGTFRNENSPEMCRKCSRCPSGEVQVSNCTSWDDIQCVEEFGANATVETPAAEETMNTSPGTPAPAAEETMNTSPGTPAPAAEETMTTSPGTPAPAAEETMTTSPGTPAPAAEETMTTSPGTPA
Procedure: as §1, §2, §3, §4, §5

human TR4 fusion protein = target: T3, human TR4 fusion protein (Homo sapiens, UniProt O00220, H141R/R209T)
T3 construct: made in house
T3 sequence (O00220 109-240 H141R/R209T): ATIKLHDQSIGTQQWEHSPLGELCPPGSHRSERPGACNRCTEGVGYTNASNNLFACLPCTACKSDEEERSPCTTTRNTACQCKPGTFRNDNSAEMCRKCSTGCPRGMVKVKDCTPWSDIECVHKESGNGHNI
Procedure: as §1, §2, §3, §4, §5

B1: T1014B11: scFv that immunospecifically binds TRAIL receptor TR4, protein SEQ ID NO:47 (protein)
scFv: EVQLVQSGAEVKKPGASVKVSCKISGDSFTAYFIHWLRQAPGEGLEWMGWFNPISGTAGSPQKFHGRVAMTRDTSISTAYMELTRLASDDTAIYYCARQHHSNTFDPWGQGTLVTVSSGGGGSGGGGSGGGGSAQSALTQPASVSGSPGQSITISCTGTNSDVGGYNYVSWYQQHPGKAPKLMIYEVNNRPSGVSNRFSGSKSGNTASLTISGLQADDEADYYCSSYTTSNTWVFGGGTKLTVLG
modifications: T1014B11 scFv
[1]
  binding to an irrelevant fusion protein: not
BLyS
  binding to BLyS: not
TR7
  binding to TR7: not
TR10
  binding to TR10: not
TR5
  binding to TR5: not
Human TR4 fusion protein
  binding to TR4: bind

— patent US7361341B2, “Methods of treating cancer using antibodies that immunospecifically bind to trail receptors” (Human Genome Sciences, Inc., priority 2001, dated 2008)
